Results as given in patent US20070014817.

Legend:
[1] = tested on: Plasmodium berghei Apical Membrane Antigen 1 (PbAMA1)
[2] = tested on: Plasmodium berghei Merozoite Surface Protein 1, 42 kDa form (PbMSP1-42)

Plasmodium berghei subtilisin-like protease SUB2 (PbSUB2), TrimycDuoXpress (TmDX) epitope-tagged, as expressed in WT-TmDX1 and SPA-TmDX1 recombinant parasites
ratio of HSP70-corrected PbAMA1-CT15 maturation product, SPA-TmDX1 (PbSUB2 over-expressing) versus WT-TmDX1 merozoite extracts, Western blot, 6.5 x 10^7 parasites (fold (ratio of corrected amounts)) [1]: 9.7
ratio of HSP70-corrected PbMSP1-19 maturation product, SPA-TmDX1 (PbSUB2 over-expressing) versus WT-TmDX1 merozoite extracts, Western blot, 1.3 x 10^6 parasites (fold (ratio of corrected amounts)) [2]: 2.9
ratio of HSP70-corrected PbMSP1-19 maturation product, SPA-TmDX1 (PbSUB2 over-expressing) versus WT-TmDX1 merozoite extracts, Western blot, 6.5 x 10^6 parasites (fold (ratio of corrected amounts)) [2]: 2.5
ratio of HSP70-corrected PbMSP1-19 maturation product, SPA-TmDX1 (PbSUB2 over-expressing) versus WT-TmDX1 merozoite extracts, Western blot, 13 x 10^6 parasites (fold (ratio of corrected amounts)) [2]: 2.1
